The assay has as its target AHb1 (Arabidopsis thaliana, UniProt O24520). The assay can be described thus: size exclusion chromatography.

B1: AHb1 (protein)
chain: MESEGKIVFTEEQEALVVKSWSVMKKNSAELGLKLFIKIFEIAPTTKKMFSFLRDSPIPAEQNPKLKPHAMSVFVMCCESAVQLRKTGKVTVRETTLKRLGASHSKYGVVDEHFEVAKYALLETIKEAVPEMWSPEMKVAWGQAYDHLVAAIKAEMNLSN
modifications: ferrous-oxy heme (O2-bound)
As for B1, the Kd stood at 1.2 µM.

B2: AHb1 (protein)
chain: B1 chain
modifications: ferric heme
The molecule B2 gave an equilibrium dissociation constant (Kd) of 11 µM.

These data come from paper PMC7761212 (2020).
